Data taken from US10023484B2, “Use of peracetic acid/hydrogen peroxide and peroxide-reducing agents for treatment of drilling fluids, frac fluids, flowback water and disposal water” (Ecolab USA Inc., priority 2012, dated 2018).

Key:
[1] = Hydrogen peroxide reduction by catalase in 2%, 3%, 5% peracid compositions, iodometric assay (Example 13); type: physicochemical
Protocol: The concentration of peracid compositions was evaluated to determine the peroxide-reducing capability of enzymes. A catalase enzyme was evaluated for efficacy in reducing hydrogen peroxide at varying concentrations under increasingly concentrated peracid compositions. The commercially-available peracid (POAA) composition EnviroSan (Ecolab, Inc., St. Paul, Minn.) was evaluated using catalase enzymes added to 2%, 3%, and 5% peracid compositions. The catalase enzymes were added to the POAA solution and gently stirred under ambient conditions. After the addition of catalase, the stirring was discontinued, and the samples were taken for iodometric assay.

[2] = Field application of catalase (ES 2000) in pond water: room temperature, sunlight, shielded (Example 22); type: physicochemical
Protocol: A field of use application was analyzed to determine efficacy of the peroxide-reducing catalase enzyme in pond waters under ambient conditions. Catalase (ES 2000) was used in a pond water source (370000 barrel (bbl.)) to reduce/eliminate H2O2 in a POAA peracid composition. The pond water when sampled contained both POAA and H2O2. The treatments analyzed were based on established laboratory data, which at 1 ppm use level selectively eliminated H2O2 to zero within 4 hours. […] Therefore, 100 gram samples of the pond water were used to add various levels of either 1 ppm catalase (Table 33) or 2 ppm catalase (Table 34).
The samples were then stored at various conditions identified: ambient room temperature, outside under sunlight, outside shielded from sunlight. The level of hydrogen peroxide was assayed at various times (shown at 0 hours and 2 hours) to check the functionality of the catalase peroxide-reducing agent. As referred to in the Tables, the following measurements are set forth as follows: EP1 V (ml 0.05N Na2S2O3) and EP2 V (ml 0.05N Na2S2O3).

[3] = test system: produced water samples (planktonic bacteria); assay: Planktonic kill study, ATP quantification assay; type: cell-based; conditions: PAA/H2O2 25 ppm
Protocol: Planktonic kill studies were performed as an evaluation of biocide efficiency for PAA/H2O2 and PAA/H2O2/Catalase applications. Briefly, produced water samples were used to test the kill efficiency of PAA/H2O2 at the following dosages: 25, 50, 75, 150 and 300 ppm PAA. Concentration of catalase was fixed at 1000 ppm. The contact time was set to 10 and 60 minutes. After contact time, bacterial enumeration was performed using ATP quantification assay. Bacterial enumeration was calculated at the end of the appropriate time and biocide efficacy determined by comparison to an untreated sample.

[4] = Catalase (ES2000) amount needed in treated water source, iodometric titration (Example 15); type: physicochemical
Protocol: Field of use applications were analyzed to determine the amount of a peroxide-reducing enzyme necessary to obtain desired concentrations of both peracid and hydrogen peroxide in a treated water source. EnviroSan (POAA) peracid composition was added to water to reach the targeted POAA concentrations set forth in Table 18, and the concentration of both POAA and H2O2 were confirmed by iodometric titration. Then catalase (ES2000) was added to the solution, and the sample was stored under ambient conditions. The concentration of POAA and H2O2 were monitored by the iodometric conditions.

[5] = POAA and H2O2 loss with Mo peroxide-reducing agent (Example 20); type: physicochemical; conditions: 10 g Mo
Description: (§1) Various additional inorganic metals and metal compounds were further evaluated for use as peroxide decomposition catalysts (e.g. peroxide-reducing agents) according to the methods of the invention. The metals were provided as solid catalysts to POAA solutions.

[6] = POAA and H2O2 loss with NiW peroxide-reducing agent (Example 20); type: physicochemical; conditions: 10 g NiW
Description: as §1

[7] = POAA and H2O2 loss with NiMo peroxide-reducing agent (Example 20); type: physicochemical; conditions: 10 g NiMo
Description: as §1

[8] = POAA and H2O2 loss with CoMo peroxide-reducing agent (Example 20); type: physicochemical; conditions: 10 g CoMo
Description: as §1

[9] = 2% POAA, 1500 ppm Catalase, 0 min.
[10] = 2% POAA, 1500 ppm Catalase, 6.5 min.
[11] = 3% POAA, 1500 ppm Catalase, 0 min.
[12] = 3% POAA, 1500 ppm Catalase, 6.5 min.
[13] = 3% POAA, 1500 ppm Catalase, 10 min.
[14] = 3% POAA, 1500 ppm Catalase, 15 min.
[15] = 3% POAA, 2500 ppm Catalase, 0 min.
[16] = 3% POAA, 2500 ppm Catalase, 6.5 min.
[17] = 3% POAA, 2500 ppm Catalase, 10 min.
[18] = 3% POAA, 2500 ppm Catalase, 15 min.
[19] = 5% POAA, 1500 ppm Catalase, 0 min.
[20] = 5% POAA, 1500 ppm Catalase, 6.5 min.
[21] = 1 ppm catalase, Ambient Room, Time 0.00 hr
[22] = 1 ppm catalase, Ambient Room, Time 2.00 hr
[23] = 1 ppm catalase, Outside shield from the sunlight, Time 0.00 hr
[24] = 1 ppm catalase, Outside shield from the sunlight, Time 2.00 hr
[25] = 1 ppm catalase, Outside under the sunlight, Time 0.00 hr
[26] = 1 ppm catalase, Outside under the sunlight, Time 2.00 hr
[27] = 2 ppm catalase, Ambient Room, Time 0.00 hr
[28] = 2 ppm catalase, Ambient Room, Time 2.00 hr
[29] = 2 ppm catalase, Outside shield from the sunlight, Time 0.00 hr
[30] = 2 ppm catalase, Outside shield from the sunlight, Time 2.00 hr
[31] = 2 ppm catalase, Outside under the sunlight, Time 0.00 hr
[32] = 2 ppm catalase, Outside under the sunlight, Time 2.00 hr
[33] = 0.5 ppm catalase, series starting at 14.6 ppm POAA, 0 hr
[34] = 0.5 ppm catalase, series starting at 14.6 ppm POAA, 1 hr
[35] = 0.5 ppm catalase, series starting at 14.6 ppm POAA, 2 hr
[36] = 0.5 ppm catalase, series starting at 14.6 ppm POAA, 3.6 hr
[37] = 0.5 ppm catalase, series starting at 31.1 ppm POAA, 0 hr
[38] = 0.5 ppm catalase, series starting at 31.1 ppm POAA, 1 hr
[39] = 0.5 ppm catalase, series starting at 31.1 ppm POAA, 2 hr
[40] = 0.5 ppm catalase, series starting at 31.1 ppm POAA, 3.6 hr
[41] = 1.0 ppm catalase, series starting at 14.8 ppm POAA, 0 hr
[42] = 1.0 ppm catalase, series starting at 14.8 ppm POAA, 1 hr
[43] = 1.0 ppm catalase, series starting at 14.8 ppm POAA, 2 hr
[44] = 1.0 ppm catalase, series starting at 14.8 ppm POAA, 3.6 hr
[45] = 1.0 ppm catalase, series starting at 30.1 ppm POAA, 0 hr
[46] = 1.0 ppm catalase, series starting at 30.1 ppm POAA, 1 hr
[47] = 1.0 ppm catalase, series starting at 30.1 ppm POAA, 2 hr
[48] = 1.0 ppm catalase, series starting at 30.1 ppm POAA, 3.6 hr

Catalase
H2O2 [1, 9]: 1.36% H2O2 | POAA [1, 9]: 2.0% POAA | H2O2 [1, 10]: 0.08% H2O2 | POAA [1, 10]: 2.05% POAA | H2O2 [1, 11]: 2.04% H2O2 | POAA [1, 11]: 3.0% POAA | H2O2 [1, 12]: 0.33% H2O2 | POAA [1, 12]: 2.97% POAA | H2O2 [1, 13]: 0.23% H2O2 | POAA [1, 13]: 2.83% POAA | H2O2 [1, 14]: 0.21% H2O2 | POAA [1, 14]: 2.95% POAA | H2O2 [1, 15]: 2.04% H2O2 | POAA [1, 15]: 2.0% POAA | H2O2 [1, 16]: 0.33% H2O2 | POAA [1, 16]: 2.99% POAA | H2O2 [1, 17]: 0.23% H2O2 | POAA [1, 17]: 2.95% POAA | H2O2 [1, 18]: 0.21% H2O3 | POAA [1, 18]: 2.87% POAA | H2O2 [1, 19]: 3.40% H2O2 | POAA [1, 19]: 5.0% POAA | H2O2 [1, 20]: 3.81% H2O2 | POAA [1, 20]: 4.96% POAA | H2O2 [2, 21]: 6.8 ppm | POAA [2, 21]: 5.7 ppm | H2O2 [2, 22]: 1.3 ppm | POAA [2, 22]: 5.7 ppm | H2O2 [2, 23]: 6.8 ppm | POAA [2, 23]: 5.7 ppm | H2O2 [2, 24]: 0.9 ppm | POAA [2, 24]: 5.7 ppm | H2O2 [2, 25]: 6.8 ppm | POAA [2, 25]: 5.7 ppm | H2O2 [2, 26]: 6.8 ppm | POAA [2, 26]: 4.75 ppm | H2O2 [2, 27]: 6.8 ppm | POAA [2, 27]: 5.7 ppm | H2O2 [2, 28]: 0.0 ppm | POAA [2, 28]: 5.7 ppm | H2O2 [2, 29]: 6.8 ppm | POAA [2, 29]: 5.7 ppm | H2O2 [2, 30]: 0.0 ppm | POAA [2, 30]: 5.7 ppm | H2O2 [2, 31]: 6.8 ppm | POAA [2, 31]: 5.7 ppm | H2O2 [2, 32]: 4.3 ppm | POAA [2, 32]: 4.75 ppm | increase of biocide efficiency by addition of 1000 ppm catalase ([3]; after 10 minutes): 48% | increase of biocide efficiency by addition of 1000 ppm catalase ([3]; after 60 minutes): 23% | H2O2 (ppm) [4, 33]: 12.0 ppm | POAA (ppm) [4, 33]: 14.6 ppm | H2O2 (ppm) [4, 34]: 7.5 ppm | POAA (ppm) [4, 34]: 15.0 ppm | H2O2 (ppm) [4, 35]: 6.5 ppm | POAA (ppm) [4, 35]: 14.3 ppm | H2O2 (ppm) [4, 36]: 1.8 ppm | POAA (ppm) [4, 36]: 14.2 ppm | H2O2 (ppm) [4, 37]: 22.8 ppm | POAA (ppm) [4, 37]: 31.1 ppm | H2O2 (ppm) [4, 38]: 12.2 ppm | POAA (ppm) [4, 38]: 32.0 ppm | H2O2 (ppm) [4, 39]: 7.8 ppm | POAA (ppm) [4, 39]: 29.2 ppm | H2O2 (ppm) [4, 40]: 3.4 ppm | POAA (ppm) [4, 40]: 30.6 ppm | H2O2 (ppm) [4, 41]: 12.6 ppm | POAA (ppm) [4, 41]: 14.8 ppm | H2O2 (ppm) [4, 42]: 3.7 ppm | POAA (ppm) [4, 42]: 14.6 ppm | H2O2 (ppm) [4, 43]: 1.1 ppm | POAA (ppm) [4, 43]: 14.2 ppm | H2O2 (ppm) [4, 44]: 0.4 ppm | POAA (ppm) [4, 44]: 15.9 ppm | H2O2 (ppm) [4, 45]: 23.3 ppm | POAA (ppm) [4, 45]: 30.1 ppm | H2O2 (ppm) [4, 46]: 7.6 ppm | POAA (ppm) [4, 46]: 31.0 ppm | H2O2 (ppm) [4, 47]: 2.3 ppm | POAA (ppm) [4, 47]: 29.6 ppm | H2O2 (ppm) [4, 48]: 0.0 ppm | POAA (ppm) [4, 48]: 29.3 ppm

OO [H2O2]
H2O2 Concentration ([5]; Time 0): 1615 | H2O2 Concentration ([5]; Time 15): 1334.5 | H2O2 Concentration ([5]; Time 30): 1181.5 | H2O2 Concentration ([5]; Time 45): 986 | H2O2 Concentration ([5]; Time 60): 841.5 | H2O2 Concentration ([6]; Time 0): 1615 | H2O2 Concentration ([6]; Time 15): 1581 | H2O2 Concentration ([6]; Time 30): 1598 | H2O2 Concentration ([6]; Time 45): 1615 | H2O2 Concentration ([6]; Time 60): 1615 | H2O2 Concentration ([7]; Time 0): 1615 | H2O2 Concentration ([7]; Time 15): 1581 | H2O2 Concentration ([7]; Time 30): 1555.5 | H2O2 Concentration ([7]; Time 45): 1530 | H2O2 Concentration ([7]; Time 60): 1496 | H2O2 Concentration ([8]; Time 0): 1615 | H2O2 Concentration ([8]; Time 15): 1343 | H2O2 Concentration ([8]; Time 30): 1156 | H2O2 Concentration ([8]; Time 45): 994.5 | H2O2 Concentration ([8]; Time 60): 841.5
